We go through 1 molecule from US20080009025A1, “PROTEIN KINASE REGULATION” (priority 1999, published 2008).

For the assay, the target named is GST-PDK1[K115A], O15530. Kind of assay: cell-based or functional assay.
Chain of GST-PDK1[K115A], O15530 (O15530 whole entry K115A): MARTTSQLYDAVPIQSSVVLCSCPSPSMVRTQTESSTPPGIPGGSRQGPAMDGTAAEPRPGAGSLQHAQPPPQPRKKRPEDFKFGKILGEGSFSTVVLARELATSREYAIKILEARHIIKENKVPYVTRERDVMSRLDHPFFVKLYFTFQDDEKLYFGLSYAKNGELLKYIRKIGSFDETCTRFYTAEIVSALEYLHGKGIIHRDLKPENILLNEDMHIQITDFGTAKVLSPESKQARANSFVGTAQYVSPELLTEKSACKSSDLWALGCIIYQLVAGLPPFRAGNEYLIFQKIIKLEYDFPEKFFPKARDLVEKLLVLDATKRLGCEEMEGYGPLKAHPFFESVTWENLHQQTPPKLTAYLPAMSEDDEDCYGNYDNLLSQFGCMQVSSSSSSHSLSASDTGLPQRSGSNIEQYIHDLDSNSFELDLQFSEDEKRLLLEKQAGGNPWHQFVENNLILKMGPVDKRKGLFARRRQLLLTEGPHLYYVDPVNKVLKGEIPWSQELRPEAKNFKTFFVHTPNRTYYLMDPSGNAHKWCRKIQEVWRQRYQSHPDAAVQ

REPRILSEEEQEMFRDFDYIADWC [PIFtide (24 residue synthetic peptide encompassing the PDK1 binding site on PIF)]: the inhibition by 2 µM PIFtide of the activation of S6K1-T2[T412E] and SGK1[T422D] by this PDK1 mutant is 50%; the inhibition by 35 µM PIFtide of the activation of S6K1-T2[T412E] and SGK1[T422D] by this PDK1 mutant was > 95%.
